Measured values from patent US20240279341A1 (Alector, published 2024).

T1: human MerTK overexpressed on CHO cells (human, UniProt Q12866 21-999)
T1 construct: also called CHO-huMerTK OE; CHO-human MerTK OE cells
T1 sequence: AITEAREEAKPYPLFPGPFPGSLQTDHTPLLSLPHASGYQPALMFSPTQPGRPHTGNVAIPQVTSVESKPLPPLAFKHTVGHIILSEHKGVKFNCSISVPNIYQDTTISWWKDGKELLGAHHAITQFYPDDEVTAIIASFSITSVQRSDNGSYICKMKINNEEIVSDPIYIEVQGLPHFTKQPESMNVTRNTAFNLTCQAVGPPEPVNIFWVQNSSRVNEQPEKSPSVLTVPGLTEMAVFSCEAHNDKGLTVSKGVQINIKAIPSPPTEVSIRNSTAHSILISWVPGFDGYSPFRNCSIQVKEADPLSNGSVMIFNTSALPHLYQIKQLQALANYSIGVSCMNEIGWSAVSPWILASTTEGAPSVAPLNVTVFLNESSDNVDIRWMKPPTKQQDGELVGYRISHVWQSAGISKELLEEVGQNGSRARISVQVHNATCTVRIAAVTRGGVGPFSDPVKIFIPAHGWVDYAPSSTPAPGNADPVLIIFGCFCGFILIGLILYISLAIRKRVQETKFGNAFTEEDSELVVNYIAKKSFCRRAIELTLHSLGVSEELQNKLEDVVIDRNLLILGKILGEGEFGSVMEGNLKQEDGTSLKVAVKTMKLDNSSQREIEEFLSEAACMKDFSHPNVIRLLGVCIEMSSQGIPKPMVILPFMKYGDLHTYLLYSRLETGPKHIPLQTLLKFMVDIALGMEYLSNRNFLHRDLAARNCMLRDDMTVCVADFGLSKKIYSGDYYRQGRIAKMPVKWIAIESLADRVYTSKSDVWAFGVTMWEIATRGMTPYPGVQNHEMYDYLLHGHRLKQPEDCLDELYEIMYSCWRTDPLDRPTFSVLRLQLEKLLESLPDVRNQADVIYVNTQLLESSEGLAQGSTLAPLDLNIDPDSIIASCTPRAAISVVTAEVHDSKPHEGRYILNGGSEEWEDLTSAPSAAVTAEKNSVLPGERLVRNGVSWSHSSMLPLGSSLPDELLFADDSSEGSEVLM

T2: human MerTK on M2c-differentiated human macrophages (human, UniProt Q12866 21-999)
T2 construct: Endogenous MerTK of primary human macrophages; also called M2c-huMacrophages
T2 sequence: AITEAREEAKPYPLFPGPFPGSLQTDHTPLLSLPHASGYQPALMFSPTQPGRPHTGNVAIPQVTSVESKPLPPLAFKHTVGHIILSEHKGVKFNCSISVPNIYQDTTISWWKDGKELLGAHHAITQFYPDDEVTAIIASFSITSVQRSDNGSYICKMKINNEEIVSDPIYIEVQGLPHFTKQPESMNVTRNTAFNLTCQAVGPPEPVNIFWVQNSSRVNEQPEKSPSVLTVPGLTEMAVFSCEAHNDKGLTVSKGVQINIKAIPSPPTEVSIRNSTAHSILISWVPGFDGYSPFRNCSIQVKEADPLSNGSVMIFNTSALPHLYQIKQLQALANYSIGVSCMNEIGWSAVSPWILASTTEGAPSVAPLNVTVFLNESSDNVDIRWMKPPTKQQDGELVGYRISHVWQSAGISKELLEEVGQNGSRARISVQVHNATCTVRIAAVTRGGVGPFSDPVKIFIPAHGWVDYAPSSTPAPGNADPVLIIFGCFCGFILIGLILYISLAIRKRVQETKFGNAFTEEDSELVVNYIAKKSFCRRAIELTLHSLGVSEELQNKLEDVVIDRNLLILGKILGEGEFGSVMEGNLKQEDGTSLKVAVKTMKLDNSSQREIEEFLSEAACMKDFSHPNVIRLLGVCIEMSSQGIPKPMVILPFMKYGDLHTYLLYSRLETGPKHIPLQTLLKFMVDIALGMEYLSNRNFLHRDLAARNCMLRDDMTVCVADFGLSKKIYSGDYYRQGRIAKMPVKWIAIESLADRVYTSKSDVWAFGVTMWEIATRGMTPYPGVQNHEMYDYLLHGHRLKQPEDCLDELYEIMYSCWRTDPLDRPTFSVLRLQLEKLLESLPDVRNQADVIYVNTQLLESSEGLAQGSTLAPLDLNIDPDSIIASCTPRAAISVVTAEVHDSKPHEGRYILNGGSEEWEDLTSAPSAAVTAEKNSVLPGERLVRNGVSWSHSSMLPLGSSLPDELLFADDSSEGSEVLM


Legend:
[1] = biological target: T3, human PDL1 (human, UniProt Q9NZQ7 19-290); experiment: flow cytometry on CHO-huPDL1 OE cells, Dylight650-conjugated antibody
T3 construct: whole, on cells; Also used as the target for the monovalent anti-PDL1 antibody on M2c-differentiated human macrophages (endogenous PDL1); also called huPDL1; programmed death-ligand 1
T3 sequence (Q9NZQ7 19-290): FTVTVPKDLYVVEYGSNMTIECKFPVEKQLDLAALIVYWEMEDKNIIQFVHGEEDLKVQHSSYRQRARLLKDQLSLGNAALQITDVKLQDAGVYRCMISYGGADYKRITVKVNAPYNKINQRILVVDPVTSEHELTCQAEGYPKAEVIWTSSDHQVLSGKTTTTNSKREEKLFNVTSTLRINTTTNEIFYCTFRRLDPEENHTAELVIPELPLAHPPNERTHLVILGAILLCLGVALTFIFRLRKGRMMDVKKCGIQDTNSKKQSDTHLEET
Text: (§1) Human macrophages were differentiated from human monocytes for 7 days in the presence of human M-CSF, resulting in M2c-differentiated human macrophages. After 7 days, the differentiated human macrophages were harvested (by scraping), resuspended in PBS, and plated on 96-well plates for use. CHO cells overexpressing human MerTK (CHO-huMerTK OE), CHO cells overexpressing human PDL1 (CHO-huPDL1 OE), and M2c-differentiated human macrophages were stained with Dylight650-conjugated bispecific anti-MerTK:anti-PDL1 antibodies, or bivalent anti-MerTK antibodies for 30 min on ice. A range of antibody concentrations were used in these studies to obtain binding curves. All antibodies tested in these studies were IgG1 having Fc regions comprising LALAPS mutations. Cells were fixed and then acquired on a BD FACS Canto II cytometer. The mean fluorescence intensity (MFI) was calculated using FlowJo software and Kd value was calculated using Prism software.

[2] = biological target: T1, human MerTK overexpressed on CHO cells; experiment: flow cytometry, Dylight650-conjugated antibody on CHO-huMerTK OE cells, MFI
Method: (§2) To determine whether bispecific anti-MerTK:anti-PDL1 antibodies of the present disclosure bind to different cell types, the following experiments were performed. Cells used in these studies included CHO cells overexpressing human MerTK (CHO-human MerTK OE cells), CHO cells overexpressing human PDL1 (CHO-human PDL1 OE cells), and M2c-differentiated human macrophages.
as §1

[3] = biological target: T2, human MerTK on M2c-differentiated human …; experiment: flow cytometry on M2c-differentiated human macrophages
Text: as §1

[4] = biological target: T3, human PDL1; experiment: flow cytometry, Dylight650-conjugated antibody on CHO-huPDL1 OE cells, MFI
Method: as §2, §1

[5] = biological target: T1, human MerTK overexpressed on CHO cells; experiment: flow cytometry on CHO-huMerTK OE cells
Text: as §1

Binder	binding result [1]	EC50 (read off the curve) [2] [nM]	fold higher affinity compared to its monovalent form (monovalent MTK-33.11) [3] [fold]	binding result [4]	fold higher affinity compared to its monovalent form (monovalent MTK-33.11) [5] [fold]
monovalent anti-MerTK antibody MTK-33.11 (antibody, V domains shown) VH: QVQLVQSGAEVKKPGASVKVSCKASGYTFTSYWMHWVRQAPGQGLEWIGVIDPSDNYINYNQKFQGRVTMTRDTSTSTVYMELSSLRSEDTAVYYCAREAWTRGYFDYWGQGTLVTVSS VL: DIQMTQSPSSLSASVGDRVTITCQASRSVRNTVAWYQQKPGKAPKLLIYYASNRYTGVPSRFSGSGSGTDFTFTISSLQPEDIATYYCQQDYRSPFTFGQGTKLEIK	no binding				
monovalent anti-MerTK antibody MTK-16.2 (antibody, V domains shown) VH: QVQLVQSGSELKKPGASVKVSCKASGYTFTNHGMNWVRQAPGQGLEWMGWINTYTGEPTYADDFKGRFVFSLDTSVSTAYLQISSLKAEDTAVYYCARKGVTAARYFDYWGQGTLVTVSS VL: DIQMTQSPSSLSASVGDRVTITCRASQNVRTAVAWYQQKPGKAPKRLIYLASNRHTGVPSRFSGSGSGTEFTLTISNLQPEDFATYYCLQHWNYPLTFGGGTKLEIK	no binding				

Results, then the binder that gave them:

binding result [1]	EC50 (read off the curve) [2] [nM]	fold higher affinity compared to its monovalent form (monovalent MTK-33.11) [3] [fold]	binding result [4]	fold higher affinity compared to its monovalent form (monovalent MTK-33.11) [5] [fold]	Binder
	~4	~5	no binding (tested: about 70 nM)	~10	bivalent anti-MerTK antibody MTK-33.11 (full IgG) (antibody, V domains shown) VH: QVQLVQSGAEVKKPGASVKVSCKASGYTFTSYWMHWVRQAPGQGLEWIGVIDPSDNYINYNQKFQGRVTMTRDTSTSTVYMELSSLRSEDTAVYYCAREAWTRGYFDYWGQGTLVTVSS VL: DIQMTQSPSSLSASVGDRVTITCQASRSVRNTVAWYQQKPGKAPKLLIYYASNRYTGVPSRFSGSGSGTDFTFTISSLQPEDIATYYCQQDYRSPFTFGQGTKLEIKR
			no binding (tested: about 70 nM)		bivalent anti-MerTK antibody MTK-16.2 (full IgG) (antibody, V domains shown) VH: QVQLVQSGSELKKPGASVKVSCKASGYTFTNHGMNWVRQAPGQGLEWMGWINTYTGEPTYADDFKGRFVFSLDTSVSTAYLQISSLKAEDTAVYYCARKGVTAARYFDYWGQGTLVTVSS VL: DIQMTQSPSSLSASVGDRVTITCRASQNVRTAVAWYQQKPGKAPKRLIYLASNRHTGVPSRFSGSGSGTEFTLTISNLQPEDFATYYCLQHWNYPLTFGGGTKLEIKR
